Consider five substances from publication PMC4831847.

In this data set the test system is hPBV RdRP WT (human picobirnavirus strain Hy005102). The data set is described as follows: EMSA. The note with it: 50 mM Tris-HCl pH 7.5, 50 mM KCl, 1 mM NaN3, 5 mM beta-mercaptoethanol, 10% glycerol, 1 nM 32P-RNA, 30 min at room temperature, 15% native PAGE in ice bath. On the technique in general: Mobility shift assays separate free from complexed probe on a gel.

In turn, CACACACACACACACACACA [CA repeat 20-mer] gave a binding signal (fold lower affinity than 5'-(+)UTR) of 10.

For PBV2+(Δ1-645), the binding signal (fold weaker than full-length PBV2+) stood at 10.

The substance GUAAAAUUUUCGAAUUUUAU [PBV 5'-(+)UTR] yielded a binding signal (scale: fold higher affinity than 3'-(+)UTR or CA repeat) of 10.

For the substance GGACUAACAGUCCCAACUGC [PBV 3'-(+)UTR], the binding signal (fold lower affinity than 5'-(+)UTR) was found to be 10.

Take PBV2+ full-length: the binding signal (fold stronger than PBV2+(Δ1-645)) was 10.
